The series is described as follows: protein stability index of a GFP-peptide fusion (GPS, HEK-293T) (PSI 1-6); higher = more stable.
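Further: lentivirally expressed fusions sorted by FACS into six bins by GFP to DsRed ratio, PSI derived from sequencing read proportions per bin multiplied by bin number.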

With FFIRTSDSFDKFDFCEPSFVTGNC [PCMTD2 WT], under “parent: IOH21782_22, c terminus: a fixed tail appended”, the protein stability index was determined as 2.15.

In the case of FDHLQNRLIATKNPEEIRGGGLLK, the protein stability index (parent: IOH22484_38, c terminus: a fixed tail appended) is 3.8.

On to DSCCPAGIFQAMCLLICAEMYQVS, for which the protein stability index (parent: IOH25836_81, c terminus: a fixed tail appended) came out at 3.09.

In the case of NQEITKAFHVRRTNRVKECLAKGT, under “parent: IOH23244_80, c terminus: a fixed tail appended”, the protein stability index was found to be 3.11.

Regarding PSNRSFFSEIISSISDVKFSHSGR, the protein stability index (parent: IOH22211_46, c terminus: a fixed tail appended) was 2.33.

Regarding LRGGGQVLLGWTLHYFPFFLMGRV, under “parent: IOH22744_107, c terminus: a fixed tail appended”, the protein stability index turned out to be 2.33.

In the case of IVGFGLYGSIHGPTDYQVNIQIIE, under “parent: IOH21551_61, c terminus: a fixed tail appended”, the protein stability index is 3.17.

Regarding VYYIFERLCAPLFRNIKQEPFSAR, the protein stability index (parent: IOH22371_57, c terminus: a fixed tail appended) worked out at 2.19.

As for LLTITKAHSNAISNCCFTFSGHFL [WDR88 WT], under “parent: IOH21600_45, c terminus: a fixed tail appended”, the protein stability index stood at 3.1.

In the case of LARKGSLKNGSMGSPVNQQPKKNN [C9orf25 WT], the protein stability index (parent: IOH25834_6, c terminus: a fixed tail appended) is 4.65.

For the protein FEDEVKRLGWQQQAELQELEERLQ [KIAA0774 WT], the protein stability index (parent: IOH21722_11, c terminus: a fixed tail appended) turned out to be 4.08.

Consider VSHVFMLLFNVKSPTDIQDSSIIR, for which the protein stability index (parent: IOH25836_47, c terminus: a fixed tail appended) amounted to 2.27.

Take KSAAMLAVFAVSAVVHEYALAVCL: the protein stability index (parent: IOH22371_75, c terminus: a fixed tail appended) was 3.11.

Consider VKYNSCADRPFSAPWWFWLSLTGV, for which, under “parent: IOH22744_36, c terminus: a fixed tail appended”, the protein stability index was found to be 2.7.

As for PSNGRIDIKQLIAKKIKLTAEAEE, the protein stability index (parent: IOH22371_7, c terminus: a fixed tail appended) stood at 3.15.

Regarding RFQDLVLRMLEYEPAARISPLGAL, the protein stability index (parent: IOH14793_68, c terminus: a fixed tail appended) amounted to 2.31.

As for EGCGPPLRRWLRANLAASGGYAIA [TSPAN10 WT], the protein stability index (parent: IOH21852_47, c terminus: a fixed tail appended) was 1.89.

Turning to LYTGELDENERDLMHIAHIAELLE, the protein stability index (parent: IOH23244_73, c terminus: a fixed tail appended) was found to be 2.54.

SDVVDWLYHNVEGFTDRREARKYA: under “parent: IOH21682_75, c terminus: a fixed tail appended”, the protein stability index was 2.98.

For HPDPAPFCADNPSELPPPMERTGG, the protein stability index (parent: IOH21682_15, c terminus: a fixed tail appended) amounted to 2.73.

Regarding GGADIIVIKYNVNDKFSFHEVKDN, the protein stability index (parent: IOH25836_16, c terminus: a fixed tail appended) stood at 2.19.

On to PSRVHASEVESAVWYVKKFGRYLE, for which the protein stability index (parent: IOH22759_12, c terminus: a fixed tail appended) is 2.26.

Consider YHEAPMTRKHYQVTGYGINGTGDS, for which, for the setting “parent: IOH22744_72, c terminus: a fixed tail appended”, the protein stability index was 2.29.

As to RTFGPPPSLSPGAFSYSSSSRFSS, the protein stability index (parent: IOH21924_4, c terminus: a fixed tail appended) came out at 3.3.

Regarding RNTKRDVTLEASRENSKPRAILKP, the protein stability index (parent: IOH22211_62, c terminus: a fixed tail appended) amounted to 4.59.

With DEIEFLKKLHEEELRDLQVSVESQ, the protein stability index (parent: IOH21924_38, c terminus: a fixed tail appended) stood at 4.78.

In the case of FVAFALCMFCLYSFMPLVIKVTSA, the protein stability index (parent: IOH25755_45, c terminus: a fixed tail appended) amounted to 2.87.

For RVFKARIYTNRYETNEEDKTLQEI, the protein stability index (parent: IOH22759_67, c terminus: a fixed tail appended) stood at 2.51.

As to LTLKVLRSSSCGDTELLGQATLPV, the protein stability index (parent: IOH21460_59, c terminus: a fixed tail appended) stood at 2.3.

VTEDLRLKDWEHSIALRNISLAKG [SCARA5 WT]: for the setting “parent: IOH23227_48, c terminus: a fixed tail appended”, the protein stability index was determined as 3.31.

Take QYLAERYKVNTPMLQSFINYCLLF: under “parent: IOH25755_11, c terminus: a fixed tail appended”, the protein stability index came out at 2.35.

Regarding HVGELIIWDALDWTMQAYERNFWD, the protein stability index (parent: IOH25728_41, c terminus: a fixed tail appended) came out at 2.32.

VRSRLEEAGIKVHDVRLNGSAAGH: the protein stability index (parent: IOH22484_10, c terminus: a fixed tail appended) amounted to 2.22.

Regarding FVLGKGRGAAAAGGPQRIPAHRFV, under “parent: IOH21551_13, c terminus: a fixed tail appended”, the protein stability index was determined as 1.88.

KVVEAHKIVLCAVSHVFMLLFNVK: the protein stability index (parent: IOH25836_45, c terminus: a fixed tail appended) was 2.49.

For the protein VHTGCHKKLGPEARRPRTRWGKN, the protein stability index (parent: IOH21711_9, c terminus: native) was 1.97.

Turning to VLRSRIRFIHLVTGCVLGSSGKVL, the protein stability index (parent: IOH22744_79, c terminus: a fixed tail appended) was found to be 2.76.

In the case of YNPHPGFPELGYSYGGGSASSQHS, for the setting “parent: IOH21682_92, c terminus: a fixed tail appended”, the protein stability index was determined as 2.58.

For YGSIHGPTDYQVNIQIIEYEKKQT, the protein stability index (parent: IOH21551_62, c terminus: a fixed tail appended) amounted to 2.54.

For HHHHGRDFLLRAASFDVCESVDEA, the protein stability index (parent: IOH23244_56, c terminus: a fixed tail appended) came out at 3.72.

TSAEIELPDVEPAAFLALLRFLYS: the protein stability index (parent: IOH21551_20, c terminus: a fixed tail appended) was determined as 2.

On to AKAADSPTRNDLESGLGHFSLRVH, for which the protein stability index (parent: IOH21711_5, c terminus: a fixed tail appended) was found to be 3.12.

GVLILFLTFFAFLHCWLNAFAEML: the protein stability index (parent: IOH22371_63, c terminus: a fixed tail appended) came out at 2.73.

SFMPLVIKVTSATSVNLGILTADL: the protein stability index (parent: IOH25755_47, c terminus: a fixed tail appended) came to 2.79.

Turning to WTMQAYERNFWDPSPQLDTQQEIK, the protein stability index (parent: IOH25728_43, c terminus: a fixed tail appended) is 2.62.

Take EPAGSLRELGVWRSLLRLRATRAG: for the setting “parent: IOH21460_10, c terminus: a fixed tail appended”, the protein stability index turned out to be 2.6.

YSSSKGSLRLCDMRAAALCDKHSK [PPP2R2C WT]: for the setting “parent: IOH22415_38, c terminus: a fixed tail appended”, the protein stability index amounted to 1.74.

Regarding DWRKNIEEKSGMEGRKKMFESES [TNNI2 WT], the protein stability index (parent: IOH23107_29, c terminus: native) worked out at 2.45.

For the protein FCADNPSELPPPMERTGGIGDSRP, the protein stability index (parent: IOH21682_16, c terminus: a fixed tail appended) was determined as 4.54.

Regarding YQGPGTRRLQEVLGVQTGGPGGRR, the protein stability index (parent: IOH14793_62, c terminus: a fixed tail appended) is 3.2.

As for STTEGIQLAKELGATYLELHSLDD, for the setting “parent: IOH25836_27, c terminus: a fixed tail appended”, the protein stability index is 3.48.

Turning to FIGEESVAAGEKSILTDNPTWIID [IMPA1 WT], for the setting “parent: IOH21098_12, c terminus: a fixed tail appended”, the protein stability index worked out at 2.05.

Take FPELGYSYGGGSASSQHSEGSRSS: the protein stability index (parent: IOH21682_93, c terminus: a fixed tail appended) amounted to 3.14.

For the origin of these results see the supplement of paper PMC10567573.
